Measured values: patent US20060024786A1, “WASP and N-WASP constructs and methods of expressing such constructs” (Cytokinetics, Inc., priority 2004, published 2006)

Tests used:
[1] = molecular target: T1, Arp2/3 complex; assay: Arp2/3-mediated actin polymerization stimulated by WASP/N-WASP proteins; format: biochemical, human; details: for Activate Arp2/3?: Table 2
T1 construct: prepared from an Arp2/3 source such as human platelets; from tissue; host or cells: cell extract, e.g. human platelets
Experimental: Samples containing candidate agents (individually or as mixtures) are placed into wells on a multi-well plate. Mix 1 is added to each of the wells and mixed with the candidate agent. A sample of Mix 2 is then introduced into each well and the resulting mixture thoroughly mixed. Typically, Mix 1 and Mix 2 are mixed in 1:1 ratio (e.g., 50 μl each of Mix 1 and Mix 2).
Actin polymerization is measured as a function of time by exciting pyrene at 365 nm and by detecting an increase in fluorescence emission at 407 nm. The change in fluorescence over time is utilized to determine a fluorescence parameter (e.g., maximal velocity, time to half maximal fluorescence intensity or area under the curve of a plot of fluorescence versus time).
In a second set of experiments, the ability of various truncated forms of WASP were compared to the activity of the full-length protein. The polymerization assays were conducted in the presence of 500 nM Cdc42, 2.5 nm purified Arp2/3 complex and 3.5 μM actin. FL-WASP, 105 WASP and the VCA (see Example 7) domain were tested. The results of these trials were plotted to obtain EC50 values. The results are provided in FIG. 6 and in the chart below.

[2] = tested on: Cdc42, PIP2, Nck and Rac1; assay: Regulation of WASP/N-WASP proteins by upstream regulators; format: biochemical; details: Table 2
Source text: (§1) A second class of WASP and N-WASP proteins are those in which the WH-1 and PolyPro region have been at least partially removed. Specific examples of WASP and N-WASP proteins lacking at least a part or all of the WH1 and PolyPro regions include, but are not limited to, 213 miniWASP, 199 miniWASP and 105 miniWASP (see, FIGS. 3A and 3B). These three proteins each lack some or all of the WH-1 region, and the entire PolyPro region (approximately residues 309-414 of SEQ ID NO:2). The 213 miniWASP protein thus includes, for example, amino acid residues 213-308 and 415-501 from the full length WASP sequence (SEQ ID NO:2). 199 miniWASP includes residues 199-308 and 415-501 of SEQ ID NO:2). 105 miniWASP includes residues 105-308 and 415-501 of SEQ ID NO:2).
(§2) A fourth class of WASP and N-WASP proteins that are provided are deletion mutants in which the PolyPro region is maintained but an N-terminal region (e.g., WH1 domain) is at least partially removed. Some proteins in this class are ones that include the B, CRIB/GBD, PolyPro and VCA domains but in which some or all of the WH1 has been removed. One specific example is 98N-WASP, which includes amino acids 98-501 of SEQ ID NO:4 (also assigned SEQ ID NO:12). Another specific example is the 105 WASP protein, which includes amino acids 105-501 of SEQ ID NO:10 (see FIG. 3A and 3B). […] They can also activate actin nucleation by Arp2/3.

[3] = molecular target: T2, Cdc42, PIP2, Nck and Rac1 (Homo sapiens, UniProt P60953, G12V); assay: as above; format: biochemical; details: Cdc42 binds and activates the construct, which then activates Arp2/3 nucleation
T2 construct: made in house; host or cells: E. coli BL21(DE3) or BL21 STAR
Source text: as §1, §2

[4] = Solubility of purified full-length protein; format: physicochemical; details: expressed in 293 cells, TAP-tag purification

T2 sequence (P60953 2-191 isoform P60953-1 G12V): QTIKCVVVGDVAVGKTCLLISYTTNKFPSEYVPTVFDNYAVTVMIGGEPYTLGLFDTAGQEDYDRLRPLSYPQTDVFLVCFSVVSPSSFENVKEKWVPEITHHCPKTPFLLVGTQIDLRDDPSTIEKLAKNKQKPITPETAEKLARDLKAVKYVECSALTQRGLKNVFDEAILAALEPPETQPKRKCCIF

| Molecule | Activate Arp2/3? [1] | Regulated By Which Upstream Regulators? [2] | regulation by Cdc42 [3] | other results |
| --- | --- | --- | --- | --- |
| 105WASP: WASP deletion mutant lacking the WH1 domain, amino acids 105-501; SEQ ID NO:10 (protein, listed as Homo sapiens, (1)..(398) 105WASP) LVYSTPTPFFHTFAGDDCQAGLNFADEDEAQAFRALVQEKIQKRNQRQSGDRRQLPPPPTPANEERRGGLPPLPLHPGGDQGGPPVGPLSLGLATVDIQNPDITSSRYRGLPAPGPSPADKKRSGKKKISKADIGAPSGFKHVSHVGWDPQNGFDVNNLDPDLRSLFSRAGISEAQLTDAETSKLIYDFIEDQGGLEAVRQEMRRQEPLPPPPPPSRGGNQLPRPPIVGGNKGRSGPLPPVPLGIAPPPPTPRGPPPPGRGGPPPPPPPATGRSGPLPPPPPGAGGPPMPPPPPPPPPPPSSGNGPAPPPLPPALVPAGGLAPGGGRGALLDQIRQGIQLNKTPGAPESSALQPPPQSSEGLVGALMHVMQKRSRAIHSSDEGEDQAGDEDEDDEWDD | Yes | Cdc42, PIP2, Nck and Rac1 |  |  |
| 213 miniWASP: amino acid residues 213-308 and 415-501 of full length WASP (SEQ ID NO:2) (protein, listed as Homo sapiens, (1)..(502) FL-WASP) RGLPAPGPSPADKKRSGKKKISKADIGAPSGFKHVSHVGWDPQNGFDVNNLDPDLRSLFSRAGISEAQLTDAETSKLIYDFIEDQGGLEAVRQEMRLPPALVPAGGLAPGGGRGALLDQIRQGIQLNKTPGAPESSALQPPPQSSEGLVGALMHVMQKRSRAIHSSDEGEDQAGDEDEDDEWD |  |  | regulated by Cdc42 |  |
| 199 miniWASP: residues 199-308 and 415-501 of SEQ ID NO:2 (protein, listed as Homo sapiens, (1)..(502) FL-WASP) TVDIQNPDITSSRYRGLPAPGPSPADKKRSGKKKISKADIGAPSGFKHVSHVGWDPQNGFDVNNLDPDLRSLFSRAGISEAQLTDAETSKLIYDFIEDQGGLEAVRQEMRLPPALVPAGGLAPGGGRGALLDQIRQGIQLNKTPGAPESSALQPPPQSSEGLVGALMHVMQKRSRAIHSSDEGEDQAGDEDEDDEWD |  |  | regulated by Cdc42 |  |
| 98 N-WASP: N-WASP deletion mutant, amino acids 98-501 of SEQ ID NO:4; SEQ ID NO:12 (protein, listed as Homo sapiens, (1)..(408) 98N-WASP) FVYNSPRGYFHTFAGDTCQVALNFANEEEAKKFRKAVTDLLGRRQRKSEKRRDPPNGPNLPMATVDIKNPEITTNRFYGPQVNNISHTKEKKKGKAKKKRLTKADIGTPSNFQHIGHVGWDPNTGFDLNNLDPELKNLFDMCGISEAQLKDRETSKVIYDFIEKTGGVEAVKNELRRQAPPPPPPSRGGPPPPPPPPHNSGPPPPPARGRGAPPPPPSRAPTAAPPPPPPSRPSVAVPPPPPNRMYPPPPPALPSSAPSGPPPPPPSVLGVGPVAPPPPPPPPPPPGPPPPPGLPSDGDHQVPTTAGNKAALLDQIREGAQLKKVEQNSRPVSCSGRDALLDQIRQGIQLKSVADGQESTPPTPAPTSGIVGALMEVMQKRSKAIHSSDEDEDEDDEEDFEDDDEWED | Yes | Cdc42, PIP2, Nck and Rac1 |  |  |
| FL-N-WASP: full-length N-WASP, SEQ ID NO:4; expressed TAP-tagged in human 293 cells (protein, listed as Homo sapiens, TAP tag; (1)..(505) FL-N-WASP, expressed TAP-tagged in human 293 cells) MSSVQQQPPPPRRVTNVGSLLLTPQENESLFTFLGKKCVTMSSAVVQLYAADRNCMWSKKCSGVACLVKDNPQRSYFLRIFDIKDGKLLWEQELYNNFVYNSPRGYFHTFAGDTCQVALNFANEEEAKKFRKAVTDLLGRRQRKSEKRRDPPNGPNLPMATVDIKNPEITTNRFYGPQVNNISHTKEKKKGKAKKKRLTKADIGTPSNFQHIGHVGWDPNTGFDLNNLDPELKNLFDMCGISEAQLKDRETSKVIYDFIEKTGGVEAVKNELRRQAPPPPPPSRGGPPPPPPPPHNSGPPPPPARGRGAPPPPPSRAPTAAPPPPPPSRPSVAVPPPPPNRMYPPPPPALPSSAPSGPPPPPPSVLGVGPVAPPPPPPPPPPPGPPPPPGLPSDGDHQVPTTAGNKAALLDQIREGAQLKKVEQNSRPVSCSGRDALLDQIRQGIQLKSVADGQESTPPTPAPTSGIVGALMEVMQKRSKAIHSSDEDEDEDDEEDFEDDDEWED |  |  |  | stimulation of actin polymerization by the protein by itself ([1]; without upstream regulators, FIG. 5): only weakly stimulate actin polymerization; solubility of purified protein [4]: completely soluble |
